Test results: CN112574312A (DONGDA BIOTECHNOLOGY SUZHOU CO LTD, dated 2021)

T1: 人源OX40的胞外区与小鼠Fc融合蛋白(OX40-ECD-mFc) (human, UniProt P43489 29-214)
T1 construct: extracellular domain; also called OX40-mFc; not shown: mouse Fc
T1 sequence (looked up): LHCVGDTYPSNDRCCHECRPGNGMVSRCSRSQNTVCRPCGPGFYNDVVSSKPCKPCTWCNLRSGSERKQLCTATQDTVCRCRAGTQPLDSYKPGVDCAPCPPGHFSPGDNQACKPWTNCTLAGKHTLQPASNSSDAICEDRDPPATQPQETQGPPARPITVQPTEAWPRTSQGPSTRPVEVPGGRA

T2: 人OX40 (Jurkat-OX40细胞) (human, UniProt P43489 29-277)
T2 construct: whole, on cells; also called OX40受体; CD134
T2 sequence (looked up): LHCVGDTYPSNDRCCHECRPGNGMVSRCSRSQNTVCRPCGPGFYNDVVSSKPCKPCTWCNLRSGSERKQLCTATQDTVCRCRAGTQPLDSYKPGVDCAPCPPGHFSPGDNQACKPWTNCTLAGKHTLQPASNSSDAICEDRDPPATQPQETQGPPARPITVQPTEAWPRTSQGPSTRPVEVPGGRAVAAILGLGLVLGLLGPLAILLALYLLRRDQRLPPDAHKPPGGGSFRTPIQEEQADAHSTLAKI

T3: 人源OX40的胞外区与人Fc融合蛋白(OX40-hFc) (human, UniProt P43489 29-214)
T3 construct: extracellular domain; Coated on ELISA plates at 2 μg/mL; not shown: human Fc
T3 sequence (looked up): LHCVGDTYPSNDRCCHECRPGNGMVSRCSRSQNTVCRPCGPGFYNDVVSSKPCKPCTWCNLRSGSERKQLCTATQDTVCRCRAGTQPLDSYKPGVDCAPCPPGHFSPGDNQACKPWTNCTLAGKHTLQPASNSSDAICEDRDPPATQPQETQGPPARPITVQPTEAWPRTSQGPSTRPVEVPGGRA

B1: 抗人OX40人源化抗体3C9 (antibody, IgG1, V domains shown)
VH: QVQLVQSGAEVKKPGASVKVSCKASGYTFTSYIMHWVRQAPGQGLEWIGYINPYNGGSRYNDKFKVRATLTSDKSISTAYMELSRLRSDDTAVYYCARGDYDDGAWFGYWGQGTTVTVSS
VL: DIVMTQSPLSLPVTPGEPASISCKSSQSLLHSNGITYLFWYLQKPGQSPQLLIYRMSNRASGVPDRFSSSGSGTDFTLKISRVEAEDVGVYYCGQNLELPVTFGQGTKLEIK
notes: expressed in 293 cells; also called hu3C9; hu3C9-hIgG1
B2: 抗人OX40人源化抗体3F5 (antibody, IgG1, V domains shown)
VH: EVQLVESGGGLVQPGGSLRLSCAASGFTFGSYAMSWVRQAPGKGLEWVAEISSGGIYTYYADIVTGRFTTSRDNAKNSLYLQMNSLRAEDTAVYYCVRDFDYRFAYWGQGTLVTVSS
VL: DIQMTQSPSSLSASVGDRVTITCKSSQEISGYLAWLQQKPGKAPKRLIYAASSLDVGVPSRFSGSRSGSEYTLTISSLQPEDFATYYCFQYASYPYTFGQGTKLEIK
notes: expressed in 293 cells; also called hu3F5; hu3F5-hIgG1
B3: 抗人OX40鼠源抗体15A7 (antibody, V domains shown)
VH: QVQLQQSGPGLAKPSQTLSLTCSVTGYSITSDYWNWIRKFPGNKLEYMGYISYSGSTSYNPSLKSRISITRDTSKNQYYLQLSSVTTEDTATYYCARGGYYYGSSYPYYFDYWGQGTTLTVSS
VL: DIVMTQSTKFMSTTVGDRVSITCKASQNVGTAVAWYQQKPGQSPKLLIYSPSNRYTGVPDRFTGSGSGTDFTLTITNVQSEDLADYFCQQYSSYRTFGGGTKLEIK
notes: Mouse hybridoma antibody purified by Protein A
B4: 抗人OX40鼠源抗体3D9 (antibody, V domains shown)
VH: QVQLQESGPGLVAPSQSLSITCTVSGFSLTTYGITWVRQPPGKGLEWLGVIWDDGSTNYHSALISRLSISKNNYKSQVFLTLNSLQTDDTATYYCAKLLPYYFDSWGQGTTLTVSS
VL: DIVMTQSPSSLSASLGDRVTISCRASQDISNYLNWYQQKPNGTVKLLIYYTSRLLSGVPSRFSGSGSGTDYSLTISSLEQEDIATYFCQQGYTLPPTFGGGTKLEIK
notes: as for B3
B5: 抗人OX40鼠源抗体3F5 (antibody, V domains shown)
VH: EVQLVESGGDLVRPGGSLKLSCAASGFTFGSYAMSWVRQSPEKRLEWVAEISSGGIYTYYADIVTGRFTTSRDNAKNTLYLEMSSLRSEDTAMYYCVRDFDYRFAYWGQGTLVTVSA
VL: DIQMTQTTSSLSASLGDRVTISCKSSQEISGYLAWLQQKPDGTVKRLIYAASSLDVGVPSRFSGSRSGSDYSLTISNLEPEDIATYYCFQYASYPYTFGGGTKLEIK
notes: as for B3
B6: 抗人OX40鼠源抗体1G4 (antibody, V domains shown)
VH: RVQLVQSGPELKKPGETVKISCKASGYTFTDYSIHWVKQAPGKGLKWMGWINTETGESTYADDFKGRFVFSSEISATTAYLQINSLKNEDTSTYFCAWVPPWYFDVWGAGTTVTVSS
VL: DIVMTQSTTSLSVSLGDRVTINCRTSQDITNYLNWYQQKPDGTIKLLIYYTSMLKSGVPSRFSGSGSGTDYSLTISHLEQDDIATYFCQQGNTPPLTFGAGTKLELK
notes: as for B3
B7: 抗人OX40鼠源抗体3C9 (antibody, V domains shown)
VH: DVQLQQSGPELVKPGASVRMSCKASGYTFTSYIMHWVKQKPGQGLEWIGYINPYNGGSRYNDKFKVKATLASDKSSSTAYMELSSLTSADSAVYYCARGDYDDGAWFGYWGQGTLVTVSA
VL: EIQMTQAAPSVPVTPGESVSISCKSSQSLLHSNGITYLFWYLQRPGQSPQLLIYRMSNRASGVPDRFSSSGSGTAFTLKISRVEADDVGVYYCGQNLELPVTFGAGTKVELK
notes: as for B3
B8: 抗人OX40鼠源抗体9G7 (antibody, V domains shown)
VH: EVKLVESGGGLVQPGGSLKLSCAASGFTFSDYYMYWVRQTPEKRLEWVAYISNGDISTYYPDTVKGRFTISRDNAKNTLYLQMSRLKSEDTAMYYCARDDGYSAWFAYWGQGTLVTVSA
VL: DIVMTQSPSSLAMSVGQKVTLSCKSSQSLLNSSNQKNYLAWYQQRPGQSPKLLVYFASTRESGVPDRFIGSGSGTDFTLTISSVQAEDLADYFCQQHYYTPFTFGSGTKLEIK
notes: as for B3
B9: 抗人OX40鼠源抗体1A2 (antibody, IgG1, V domains shown)
VH: EVQLKESGPGIVQPSQSLSLTCTFSGFSLATSGVAVGWIRQPSGKGLEWLAHIWWDDVKRYNPSLQGRLTISKDTASSQVFLKISSVDTADTATYYCARMDWDGLAYWGAGTTVTVSA
VL: EIVLTQSPALMAASPGEKVTITCSVSSSISSSNLHWYQQKSETSPKPWIYGTSNLATGVPVRFSGSGSGTSYSLTISSMEAEDAATYYCQQYSSYPFTFGGGTKLEIK
notes: Mouse hybridoma antibody purified by Protein A; also called 1A2-mIgG1
B10: 抗人OX40人源化抗体1A2 (antibody, V domains shown)
VH: QVTLKESGPTLVKPTQTLTLTCTFSGFSLATSGVAVGWIRQPPGKALEWLAHIWWDDVKRYNPSLQGRLTITKDTSKNQVVLTMTNMDPVDTATYYCARMDWDGLAYWGQGTLVTVSS
VL: EIVLTQSPATLSLSPGERATLSCSVSSSISSSNLHWYQQKPGQAPRPWIYGTSNLATGIPARFSGSGSGTDYTLTISSLEPEDFAVYYCQQYSSYPFTFGGGTKVEIK
notes: expressed in 293 cells; also called hu1A2; 1A2人源化抗体
B11: 抗人OX40人源化抗体15A7 (antibody, IgG1, V domains shown)
VH: QVQLQESGPGLVKPSETLSLTCTVSGYSITSDYWNWIRQPPGKGLEYMGYISYSGSTSYNPSLKSRITISRDTSKNQYSLKLSSVTAADTAVYYCARGGYYYGSSYPYYFDYWGQGTLVTVSS
VL: DIQMTQSPSTLSASVGDRVTITCKASQNVGTAVAWYQQKPGKAPKLLIYSPSNRYTGVPSRFSGSGSGTEFTLTISSLQPDDFATYYCQQYSSYRTFGGGTKVEIK
notes: expressed in 293 cells; also called hu15A7; hu15A7-hIgG1
B12: 抗人OX40鼠源抗体17C1 (antibody, V domains shown)
VH: DVQLQESGPGLVKPSQSLSLTCTVTGYSITSDYAWNWIRQFPGNKLEWMGYITYSGFTRYNPSLKSRFSITRDTSKNQFFLQLNSVTTEDTATYYCVYPAWFAYWGQGTLVTVSA
VL: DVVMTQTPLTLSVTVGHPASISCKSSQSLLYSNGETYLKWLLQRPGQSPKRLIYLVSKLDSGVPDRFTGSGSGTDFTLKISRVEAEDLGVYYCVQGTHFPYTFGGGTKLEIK
notes: as for B3

How the values were obtained:
[1] = molecular target: T1, 人源OX40的胞外区与小鼠Fc融合蛋白(OX40-ECD-mFc); assay: ELISA on OX40-mFc (Fig. 7)
人OX40 (Jurkat-OX40细胞) [2] = molecular target: T2, 人OX40 (Jurkat-OX40细胞); assay: FACS on Jurkat-OX40 cells (Fig. 9)
[3] = molecular target: T3, 人源OX40的胞外区与人Fc融合蛋白(OX40-hFc); assay: ELISA on coated OX40-hFc (Fig. 1)
人OX40 (Jurkat-OX40细胞) [4] = molecular target: T2, 人OX40 (Jurkat-OX40细胞); assay: FACS on Jurkat-OX40 cells (Fig. 3)

Binder	binding result [1]	binding result (人OX40 (Jurkat-OX40细胞) [2])	binding result [3]	binding result (人OX40 (Jurkat-OX40细胞) [4])
B1	binds	binds	–	–
B2	binds	binds	–	–
B3	–	–	binds	binds
B4	–	–	binds	binds
B5	–	–	binds	binds
B6	–	–	binds	binds
B7	–	–	binds	binds
B8	–	–	binds	binds
B9	–	–	binds	binds
B10	binds	binds	–	–
B11	binds	binds	–	–
B12	–	–	binds	binds
